20 sequences from the DeepSol protein solubility set can be followed below.

This series is described as follows: soluble on expression in E. coli; label from the status in PepcDB or PDB records.
As to “MERKSPSGKKFRSKPQLARYLGGSMDLSTFDFRTGKMLMSKMNKSRQRVRYDSSNQVKGKPDLNTALPVRQTASIFKQPVTKITNHPSNKVKSDPQKAVDQPRQLFWEKKLSGLNAFDIAEELVKTMDLPKGLQGVGPGCTDETLLSAIASALHTSTMPITGQLSAAVEKNPGVWLNTTQPLCKAFMVTDEDIRKQEELVQQVRKRLEEALMADMLAHVEELARDGEAPLDKACAEDDDEEDEEEEEEEPDPDPEMEHV”, the “soluble on expression in E. coli” value is “soluble”.
With “MERRSVQKKELLSTPVVPIDIKAFDAGPILEAMGKTAFQARNLHRAAEIYLRMLEDDCAVILTLAGSLVSAGQGLIVHDLIRKGLVDVIVATGANIVDQDFFEALGHRHYQGDPRADDEALRRLWIDRIYDTYIDEEELRHTDYTVAEIADGLEPRPYSSREFIWQMGRYLAERGLGEKRIVRRAYEKGVPIFVTAFSDSSAGFGLVYHQVKRPEAHVTIDSVADFRELTEIKLKAGTTGLVMLGGGVPKNFAQDIVVAAEVLGHRVEMHKYAIQITVADERDGGLSGSTLSEAQSWGKVDARLSQMVFAEATLAFPLLASYVWHRAPARAKRRYAELFREKAPA”, the “soluble on expression in E. coli” value was “soluble”.
The result for “MERVKSHFHNRKKVLLARIKDELKTIPSSNQMSTDEKMEELVRRRICIGEYDEQLARVCLDIEDEEKGRTEQFGNEQIQQPMTNLFTETSHQSLLSQLLTSSASQSKSEIPISMSSPMESASSKDSEPQAVISLPTLGATRAPLLSKLLSDPSTSKENGFLLRKEPVRLARAPSAIRNPNVSNYDRKRRAASPYEKSNRLSVLPSPQNQYLSHLIVDVSSPQELKRLLSVLIDHGFSRFQHIGSSDMVASSIRTGIPRAPRLDTVEYSNYEHEPETDEISRDGTPFWSTPIPPTNKELPVSPVSQLDMTNSIKSRVERVDVEVKLEPCNDEDDEFSEEVDEQTAELEEQLATEAIRTGLALFGKVSPSPKRMKSCGSSGSVCGDVVTAICEICGIGIRLNSGGSKWNFFEHVMMKHSTHKPFKCSQCPYQAVRKVRVKQHGQSQHNSEHEPVNMITPEVRKEWLDTMAKCFPNHQYGKEAKI” reads “not soluble”.
The result for “MERYVWARFFWQQARDKRGVPRRHVCDTARNNNRRPETGTAFTALCSTTVTPHPDDDDTVKGTCFAPACQVCTILLARAMNWNDGELGQLVQTFHWTHADIALLATALDITRSEARRLLTAWTDAAK” reads “not soluble”; that for “MESITQIYRIGYGPSSSHTIGPRRAAEMFLDRNPRATSFRVTLYGSLAATGKGHLTDAAILAVLEAKAPTEIVWKPEIFQNFHPNGMLFESFDKEGKQLDDWLIYSIGGGVLANEHFNEQ”, “not soluble”; that for “MESKAKTTVTFHSGILTIGGTVIEVAYKDAHIFFDFGTEFRPELDLPDDHIETLINNRLVPELKDLYDPRLGYEYHGAEDKDYQHTAVFLSHAHLDHSRMINYLDPAVPLYTLKETKMILNSLNRKGDFLIPSPFEEKNFTREMIGLNKNDVIKVGEISVEIVPVDHDAYGASALLIRTPDHFITYTGDLRLHGHNREETLAFCEKAKHTELLMMEGVSISFPEREPDPAQIAVVSEEDLVQHLVRLELENPNRQITFNGYPANVERFAKIIEKSPRTVVLEANMAALLLEVFGIEVRYYYAESGKIPELNPALEIPYDTLLKDKTDYLWQVVNQFDNLQEGSLYIHSDAQPLGDFDPQYRVFLDLLAKKDITFVRLACSGHAIPEDLDKIIALIEPQVLVPIHTLKPEKLENPYGERILPERGEQIVL”, “soluble”.
Regarding “MESKREYDYILPGRAESYWLATVPEPSYPALKGDIRVDIAIIGGGIAGLTTAYLLKEAGFSSIAVIEAGRILRGVTGHTTAKVTSQHSLIYDRLLSKFGKRQAQQYAESNQAALEKIASIVASKKIDCDFVRKPSYVYAGSEDSTNKIQNEAQTARNLGLPASFEENLPLPFKTYGAVRFNNQAQFHPVKYLNALAEQIHEGGCHIFENTRALKIEGEEPVTITTDKGTIRAHKVVQAMHYPIHDRPGLFFQRLYQSRSYVLGVRIRDPFPDGMFINAEEPVRSLRSQSTDKGELILVSGEGHRTGEEEHEISRYQNLEKWVRSVYSVDSIDYRWSSQDAISIDHIPYIGRQTSGNDSIFLATGFKKWGMTMGTVAAMIIKDMIREKYNPWEEVYDPSRFKPVESAKTLLSQAVEATKGFVGDRILPTHKEASQIGPEEGAIVKIEGERVAAYRDRNGVLYTLNPSCRHLGCIVSWNDAEKTWDCPCHGSRYKATGEVIHSPAVYGLSEKKIRGQDKNNIHTLEHHHHHH”, the “soluble on expression in E. coli” value is given as “soluble”.
The result for “MESPLGSDLARLVRIWRALIDHRLKPLELTQTHWVTLHNIHQLPPDQSQIQLAKAIGIEQPSLVRTLDQLEDKGLISRQTCASDRRAKRIKLTEKADALIAEMEEVIHKTRGEILAGISSEEIELLIKLIAKLEHNIMELHSHD” reads “not soluble”; that for “MESSKKMDSPGALQTNPPLKLHTDRSAGTPVFVPEQGGYKEKFVKTVEDKYKCEKCHLVLCSPKQTECGHRFCESCMAALLSSSSPKCTACQESIVKDKVFKDNCCKREILALQIYCRNESRGCAEQLTLGHLLVHLKNDCHFEELPCVRPDCKEKVLRKDLRDHVEKACKYREATCSHCKSQVPMIALQVSLLQNESVEKNKSIQSLHNQICSFEIEIERQKEMLRNNESKILHLQRVIDSQAEKLKELDKEIRPFRQNWEEADSMKSSVESLQNRVTELESVDKSAGQVARNTGLLESQLSRHDQMLSVHDIRLADMDLRFQVLETASYNGVLIWKIRDYNRRKQEAVMGKTLSLYSQPFYTGYFGYKMCARVYLNGDGMGKGTHLSLFFVIMRGEYDALLPWPFKQKVTLMLMDQGSSRRHLGDAFKPDPNSSSFKKPTGEMNIASGCPVFVAQTVLENGTYIKDDTIFIKVIVDTSDLPDP”, “soluble”.
The result for “MESSSTASQSGSRREATRQKLYEAAVTLIAEQGFSATTVDEIAERAGVAKGTVYYNFASKSVLFEELLRHGVGLLTASLRQAAERTAREGRGRVDALDAMIRAGLVFIDRYPAFTQLYVAELWRTNRAWQSTLLVVRQEAVAVVEGVLREGVASGEFSEDIDVPLTAAALVGMVLVAALDWKAFQPERSLDDVHAALSRLLQGRVSGRG” reads “not soluble”; that for “METAMSKGVITITDAEFESEVLKAEQPVLVYFWASWCGPCQLMSPLINLAANTYSDRLKVVKLEIDPNPTTVKKYKVEGVPALRLVKGEQILDSTEGVISKDKLLSFLDTHLNNN”, “soluble”.
Consider “METGMVTVVNSNNFDVPRIYPPSSKSTSIHLTGFPTFYSKDHEYLLPVNLWFNYLVNIRKAVDITASVRALKRYWQFLETNNYSWDNFPANDYLKPTYRFRNDDLLKAARSGEIAFSTASMYILHVIKFYEWAAHERFITFTEENKPFNYQIVHIANSGMMSHNNPRFTVRSTDLRIRKPARNEQQKLNPLSQQELLFFADCLKECSDEFIIHQLLQIQSGLRVEEACTFPFSIVEMPNPHIHRYEVEIGIHNGVHTKFNKTRKVEIPNQLMRKMYDYSVSERRLKREKKTDGVNKTLLLNNLGNPLCSNNIQQHFRRLRHHIQNKHNIVFSHRTHDLRATYGTYRLDSLLDHLPVGDALALIMGWMGHKDDKTTWKYLRYLRKEKANQNAIVMLDQILEEAML”, for which the “soluble on expression in E. coli” value is “not soluble”.
For “MEVEKEFITDEAKELLSKDKLIQQAYNEVKTSICSPIWPATSKTFTINNTEKNCNGVVPIKELCYTLLEDTYNWYREKPLDILKLEKKKGGPIDVYKEFIENSELKRVGMEFETGNISSAHRSMNKLLLGLKHGEIDLAIILMPIKQLAYYLTDRVTNFEELEPYFELTEGQPFIFIGFNAEAYNSNVPLIPKGSDGMSKRSIKKWKDKVENK” the value was “soluble”; for “MEVEKYDLTLDFDIQKRTFNGTETITADAGDIVLDAVGLQINWMKVNGRDTAFTYDGQTVRAPGDSQPQKIEISFAGKVSDSLSGIYYAGRENGMITTHFEATDARRMFPCVDHPAYKAVFAITVVIDKDYDAISNMPPKRIEVSERKVVEFQDTPRMSTYLLYVGIGKFRYEYEKYRDIDLILASLKDIRSKYPLDMARKSVEFYENYFGIPYALPKMHLISVPEFGAGAMENWGAITFREIYMDIAENSAVTVKRNSANVIAHEIAHQWFGDLVTMKWWNDLWLNESFATFMSYKTMDTLFPEWSFWGDFFVSRTSGALRSDSLKNTHPIEVDVRDPDEISQIFDEISYGKGASILRMIEDYAGYEEFRKGISKYLNDHKFGNAEGSDLWTAIEDVSGKPVKRVMEYWIKNPGYPVIKLKRNGRKITMYQTRFLLNGEEEGRWPVPVNIKKKDGVERILLEDEASIEADGLIKINADSAGFYRVLYDDATFSDVMGHYRDLSPLDRIGLVDDLFAFLLSGHIDPETYRQRIRNFFDDEDHNVITAIVGQMEYLRMLTHAFDDDARAFCRSRMQFLTGKQDENLKIALGRVSRLYVMVDESYAEEMSKLFKDFDSAEPEMRSSIATAYALVTGDLKGLLEKFRSVDRDEDRVRIISAFGKLKSNTDLSTVYGMVEKTEIKKQDMISFFSSALETLPGREFIFANLDRIIRLVIRYFTGNRTASRTVEMMIPVIGLDHPDAEDIVRNIGSKNISMGLAKGIEMLAVNRKLVERIRQTAVK”, “soluble”.
For “MEWFGIGAGTLRQGDRADFAVIDPTHLDESVDGYHEEAVPYYGGLRRMVNRNDATVVATGVGGTVVFRGGQFGGQFRLEHHHHHH” the value was “not soluble”.
Regarding “MEWILFDKDGTLIEFDRSWEKIGVRFVQSLLETFPVHNKEAALRQLGVIKESIDPKSVMGSGSLQQIIQAFNDVTGQDTTDWSKSTSQKLVDERIPEINWVEGVKEALIDLKAKGYQLGIVTSDTKKGVEQFLAHTNAISLFDLIISTEADAYEKPNPKVLSPLFEQYNVDPQKVAIVGDTANDMKTASNANLGMAIGVLTGIATKEELHEADIILNSAADILEALN”, the “soluble on expression in E. coli” value is given as “not soluble”.
For “MEWKNDVLRFSGFDYGVSKIRMLNEELHSECDQLSKSNESTSLKDITEEPKDEKLESIIETAKNKESEKEENSHVFNDCEFDAMTERKIENFYFRNVEQAEKKMKHLTTLKSKWSEPWQTGEEIVAKVYLKPKNHENPWKDGTFQEKEAVEMQKNGKKHGRCIIS” the value was “not soluble”.
For “MEYELLIREAEPKDAAELVAFLNRVSLETDFTSLDGDGILLTSEEMEIFLNKQASSDNQITLLAFLNGKIAGIVNITADQRKRVRHIGDLFIVIGKRYWNNGLGSLLLEEAIEWAQASGILRRLQLTVQTRNQAAVHLYQKHGFVIEGSQERGAYIEEGKFIDVYLMGKLIG” the value was “soluble”.
For “MEYHSHTVVTERKVTLLEQGQASDLTDYVANEVRVALVYNGISHTVMLASPENLEEFAIGFTLSERIVSHVNEIKGVDLEFTPEGVLIQVEITQRCFMALKQLRRNMAGRTGCGLCGVAQLEEAVKPVIRVDSDARFNIDHLQFALEQVKDNQHHFKLTGATHAAMGLDLEGQIIAAYEDIGRHIALDKLIGGCSMRHAKRPVAVLLTSRASFEMVQKAASANIQILFAMSAVTSLALELAEKSNITLIGFCRNGRATLYTHGYRLLGLNRASLAKAIAAALEHHHHHH” the value was “not soluble”.
Regarding “MEYQLREIDESEKEITQQRKKNSVTTKNFDNLSNSNSQITEMTNEQGVIPLREKDLTINVGDNRNLKVEEFMTNFISNVFENKNALFLYCKYVLLFYGKELLNENNVESLNFEIIKGGITNILVKVEDNIHQNKYLIRLYGPKTSEIINREREKLISNILCDKNISKKIYVFFPNGRIEEFKDGYALSREDIKNKDFQKEIAENLRILHDIQLDDTIYKKLQALQNIQGNRSSFLWSTLWKYFNTLKEERQKKYSFNPKAYILKLIDFDMLESIITEIQELCCKKNSPVVLCHCDLLSSNIIKTEGSSISFIDFEYSCPMERAYDIANHFNEYAGFNCEWDLTPNRSEEYHFIKHYLKTDDEQLINQLIDEIQPFYVCSHIVWGLWALLQGLHSVIDFDFINYGMTRLTAAFSVKFRSKLEKN”, the “soluble on expression in E. coli” value was “not soluble”.
